Article PMC7057995, “Structural basis of RNA polymerase I pre-initiation complex formation and promoter melting”

Legend:
[1] = target: CF with Rrn7 Δloop α7-α8 (Saccharomyces cerevisiae, UniProt P32786;P40992;Q04712 1-894;1-286+298-514;1-507, internal_change); test: EMSA; 0.2 pmol DNA; 0.25-1 pmol CF; binding not impaired; EMSA: 20 mM HEPES/KOH pH 7.8, 10% glycerol, 200 mM KCl, 1 mM MgCl2, 0.1 mg/ml BSA, 1 mM DTT, 30 min, temperature not stated; 6% native gel, 0.5x TBE; conditions: protein: recombinant; tags: His (Ni-NTA purified); copies: 1;1;1; label: NTS -3 Atto647N; TS -5 Cy3; blunt
[2] = target: CF with Rrn7 Δα4a (Saccharomyces cerevisiae, UniProt P32786;P40992;Q04712 1-894;1-208+221-514;1-507, internal_change); test: as above; conditions: protein: recombinant; tags: His (Ni-NTA purified); copies: 1;1;1; label: NTS -3 Atto647N; TS -5 Cy3; blunt
[3] = target: RNA polymerase I;Rrn3;Core factor (CF) wild type: Rrn6/Rrn7/Rrn11;UAF … (Saccharomyces cerevisiae;Saccharomyces …, UniProt P10964;P22138;P07703;P46669;P50106;P20434;P20435;P28000;P20436;P32529;P22139;P40 …, |||||); test: size exclusion chromatography; complete early PIC, stable throughout SEC; EMSA: 20 mM HEPES/KOH pH 7.8, 10% glycerol, 200 mM KCl, 1 mM MgCl2, 0.1 mg/ml BSA, 1 mM DTT, 30 min, temperature not stated; 6% native gel, 0.5x TBE

CF with Rrn7 Δloop α7-α8, sequence (P32786 whole entry, stated change not applied, chain 1 of 3): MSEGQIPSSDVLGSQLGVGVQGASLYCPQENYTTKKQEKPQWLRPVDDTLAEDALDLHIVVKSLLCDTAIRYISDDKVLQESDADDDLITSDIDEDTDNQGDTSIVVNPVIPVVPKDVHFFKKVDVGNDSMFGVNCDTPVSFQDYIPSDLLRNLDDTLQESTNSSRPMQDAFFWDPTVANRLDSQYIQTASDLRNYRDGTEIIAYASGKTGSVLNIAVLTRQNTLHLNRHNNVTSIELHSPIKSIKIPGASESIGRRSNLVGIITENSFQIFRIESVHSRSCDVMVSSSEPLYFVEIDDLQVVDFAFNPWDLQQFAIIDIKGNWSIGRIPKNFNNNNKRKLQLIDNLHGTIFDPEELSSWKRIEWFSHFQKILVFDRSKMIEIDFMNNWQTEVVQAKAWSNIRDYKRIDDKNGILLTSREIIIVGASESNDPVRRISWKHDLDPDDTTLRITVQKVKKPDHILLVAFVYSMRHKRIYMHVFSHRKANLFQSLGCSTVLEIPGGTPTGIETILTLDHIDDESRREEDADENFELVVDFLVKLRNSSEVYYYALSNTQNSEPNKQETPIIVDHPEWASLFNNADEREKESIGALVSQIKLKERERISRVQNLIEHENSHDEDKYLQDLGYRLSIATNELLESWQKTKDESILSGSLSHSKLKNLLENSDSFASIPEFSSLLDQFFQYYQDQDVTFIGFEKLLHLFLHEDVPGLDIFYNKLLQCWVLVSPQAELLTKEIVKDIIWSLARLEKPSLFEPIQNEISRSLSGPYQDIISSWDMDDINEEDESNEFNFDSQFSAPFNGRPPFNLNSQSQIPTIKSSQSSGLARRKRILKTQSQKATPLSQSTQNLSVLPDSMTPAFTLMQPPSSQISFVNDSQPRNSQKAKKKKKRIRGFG
CF with Rrn7 Δloop α7-α8, sequence (P40992 other isoform, or with tags, fused parts or gaps | mutant, chain 2 of 3): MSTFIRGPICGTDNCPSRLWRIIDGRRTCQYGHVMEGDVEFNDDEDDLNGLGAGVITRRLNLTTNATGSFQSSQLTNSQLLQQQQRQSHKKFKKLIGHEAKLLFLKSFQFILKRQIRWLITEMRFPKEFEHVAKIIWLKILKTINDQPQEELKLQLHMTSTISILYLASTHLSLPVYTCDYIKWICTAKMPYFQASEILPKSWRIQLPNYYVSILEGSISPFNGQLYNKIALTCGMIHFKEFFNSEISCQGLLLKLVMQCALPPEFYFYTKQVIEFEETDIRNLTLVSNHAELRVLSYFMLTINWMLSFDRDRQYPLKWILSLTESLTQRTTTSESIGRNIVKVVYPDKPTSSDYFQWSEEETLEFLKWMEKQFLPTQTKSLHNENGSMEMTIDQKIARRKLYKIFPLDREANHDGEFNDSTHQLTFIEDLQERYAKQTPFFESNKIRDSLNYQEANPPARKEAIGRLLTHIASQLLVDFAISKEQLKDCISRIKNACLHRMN
CF with Rrn7 Δloop α7-α8, sequence (Q04712 whole entry, stated change not applied, chain 3 of 3): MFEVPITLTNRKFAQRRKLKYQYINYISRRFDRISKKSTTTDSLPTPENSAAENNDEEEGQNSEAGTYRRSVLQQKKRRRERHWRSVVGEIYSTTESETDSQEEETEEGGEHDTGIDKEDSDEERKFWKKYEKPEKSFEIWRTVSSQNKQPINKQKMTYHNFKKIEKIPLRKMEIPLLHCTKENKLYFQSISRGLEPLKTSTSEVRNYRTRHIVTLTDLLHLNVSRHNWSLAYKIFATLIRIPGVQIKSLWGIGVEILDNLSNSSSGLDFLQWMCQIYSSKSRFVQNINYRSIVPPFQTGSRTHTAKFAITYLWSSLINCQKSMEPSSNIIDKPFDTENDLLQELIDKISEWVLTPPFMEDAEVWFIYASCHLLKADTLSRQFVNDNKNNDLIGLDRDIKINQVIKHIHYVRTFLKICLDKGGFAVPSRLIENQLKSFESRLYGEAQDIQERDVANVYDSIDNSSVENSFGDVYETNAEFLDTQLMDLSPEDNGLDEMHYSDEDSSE
CF with Rrn7 Δα4a, sequence (P32786 whole entry, stated change not applied, chain 1 of 3): as the sequence (P32786 whole entry, stated change not applied, chain 1 of 3) above
CF with Rrn7 Δα4a, sequence (P40992 other isoform, or with tags, fused parts or gaps | mutant, chain 2 of 3): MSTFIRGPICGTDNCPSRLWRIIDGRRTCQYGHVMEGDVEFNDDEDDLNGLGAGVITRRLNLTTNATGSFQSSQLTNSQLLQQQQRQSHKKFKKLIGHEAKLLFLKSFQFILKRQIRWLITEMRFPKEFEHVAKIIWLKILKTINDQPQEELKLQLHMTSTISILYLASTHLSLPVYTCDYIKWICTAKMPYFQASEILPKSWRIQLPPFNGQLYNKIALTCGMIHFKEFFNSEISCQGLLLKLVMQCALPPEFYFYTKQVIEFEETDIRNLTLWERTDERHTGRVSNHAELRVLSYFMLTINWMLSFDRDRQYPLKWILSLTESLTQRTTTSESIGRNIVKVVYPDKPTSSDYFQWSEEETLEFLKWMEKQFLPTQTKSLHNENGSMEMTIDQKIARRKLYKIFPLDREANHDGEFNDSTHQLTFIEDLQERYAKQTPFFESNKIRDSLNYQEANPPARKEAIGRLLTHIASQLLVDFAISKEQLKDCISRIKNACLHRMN
CF with Rrn7 Δα4a, sequence (Q04712 whole entry, stated change not applied, chain 3 of 3): as the sequence (Q04712 whole entry, stated change not applied, chain 3 of 3) above

Binder	binding result [1]	binding result [2]	binding result [3]
rDNA promoter -83 to +26 (EMSA; ID 4691/4692) (dsDNA) DNA 1: AAAAGTAAGATTTTAGTTTGTAATGGGAGGGGGAATTTAGTCATGGAGTACAAGTGTGAGGAAAAGTAGTTGGGAGGTACTTCATACCAAAGGGGTTCAACACAAGGGT DNA 2: ACCCTTGTGTTGAACCCCTTTGGTATGAAGTACCTCCCAACTACTTTTCCTCACACTTGTACTCCATGACTAAATTCCCCCTCCCATTACAAACTAAAATCTTACTTTT	binds	binds	–
rDNA promoter -155 to +8 (PIC scaffold; ID 4693/4694) (dsDNA) DNA 1: AGCTTAAATTGAAGTTTTTCTCGGCGAGAAATACGTAGTTAAGGCAGAGCGACAGAGAGGGCAAAAGAAAATAAAAGTAAGATTTTAGTTTGTAATGGGAGGGGGGGTTTAGTCATGGAGTACAAGTGTGAGGAAAAGTAGTTGGGAGGTACTTCATGCGAAA DNA 2: TTTCGCATGAAGTACCTCCCAACTACTTTTCCTCACACTTGTACTCCATGACTAAACCCCCCCTCCCATTACAAACTAAAATCTTACTTTTATTTTCTTTTGCCCTCTCTGTCGCTCTGCCTTAACTACGTATTTCTCGCCGAGAAAAACTTCAATTTAAGCT	–	–	binds
